Experimental data: paper PMC3656785

Legend:
[1] = molecular target: VipB on the GAL4 DNA-binding domain (pGBKT7) (V. cholerae); assay: two-hybrid
[2] = molecular target: VipB fused to the zinc finger DNA-binding domain of murine Zif268; conditions: parent: est. 680; read off a plot

Substance | relative β-gal activity [1] | response [2]
VipA D104A fused to the GAL4 activation domain (pGADT7) (natural protein) | 92.7% | –
VipA D104A/V106A fused to the GAL4 activation domain (pGADT7) (natural protein) | 64.1% | –
VipA D104A/V106A/V110A fused to the GAL4 activation domain (pGADT7) (natural protein) | 48.8% | –
VipA V106A fused to the GAL4 activation domain (pGADT7) (natural protein) | 92.4% | –
VipA V110A fused to the GAL4 activation domain (pGADT7) (natural protein) | 74.6% | –
VipA fused to the GAL4 activation domain (pGADT7) (natural protein) | 100% | –
VipA fused to the ω subunit of E. coli RNAP D104A | – | 460 Miller units
VipA fused to the ω subunit of E. coli RNAP D104A; V106A | – | 230 Miller units
VipA fused to the ω subunit of E. coli RNAP D104A; V106A; V110A | – | 120 Miller units
VipA fused to the ω subunit of E. coli RNAP D104A; V106A; V110A; L113A | – | 90 Miller units
VipA fused to the ω subunit of E. coli RNAP E112A | – | 720 Miller units
VipA fused to the ω subunit of E. coli RNAP L113A | – | 490 Miller units
VipA fused to the ω subunit of E. coli RNAP P111A | – | 590 Miller units
VipA fused to the ω subunit of E. coli RNAP Q109A | – | 630 Miller units
VipA fused to the ω subunit of E. coli RNAP Q109A; V110I | – | 710 Miller units
VipA fused to the ω subunit of E. coli RNAP S108A | – | 720 Miller units
VipA fused to the ω subunit of E. coli RNAP V106A | – | 460 Miller units
VipA fused to the ω subunit of E. coli RNAP V110A | – | 430 Miller units
VipA fused to the ω subunit of E. coli RNAP V110A; L113A | – | 120 Miller units
